According to patent US20020068706A1 (GPC BIOTECH, published 2002):

How the values were obtained:
CDK4/cyclin D1 complex [1] = target: T1, CDK4/cyclin D1 complex (UniProt P11802 1-303; P24385 1-295); test: inhibition constant from in vitro kinase assay (Sf9 extract, Gst-Rb substrate)
T1 construct: also called cyclin D1/CDK4 complex

cdc2/cyclin B complex = cdc2/cyclin B complex (UniProt P06493 1-297); test: cell-based or functional assay
CDK2/cyclin E complex = CDK2/cyclin E complex (UniProt P24941 1-298); test: cell-based or functional assay
CDK4/cyclin D1 complex [2] = target: T1, CDK4/cyclin D1 complex; test: cell-based or functional assay
CDK2/cyclin A complex = CDK2/cyclin A complex (UniProt P24941 1-298); test: cell-based or functional assay

T1 sequence (P11802 whole entry, chain 1 of 2): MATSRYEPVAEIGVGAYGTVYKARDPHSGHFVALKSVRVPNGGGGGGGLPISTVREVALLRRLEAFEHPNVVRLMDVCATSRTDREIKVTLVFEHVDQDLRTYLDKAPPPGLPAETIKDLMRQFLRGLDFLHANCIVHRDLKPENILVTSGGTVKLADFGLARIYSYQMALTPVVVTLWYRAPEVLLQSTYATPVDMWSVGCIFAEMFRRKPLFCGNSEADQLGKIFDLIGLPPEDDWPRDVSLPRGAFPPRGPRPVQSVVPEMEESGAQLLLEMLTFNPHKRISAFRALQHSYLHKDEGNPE
T1 sequence (P24385 whole entry, chain 2 of 2): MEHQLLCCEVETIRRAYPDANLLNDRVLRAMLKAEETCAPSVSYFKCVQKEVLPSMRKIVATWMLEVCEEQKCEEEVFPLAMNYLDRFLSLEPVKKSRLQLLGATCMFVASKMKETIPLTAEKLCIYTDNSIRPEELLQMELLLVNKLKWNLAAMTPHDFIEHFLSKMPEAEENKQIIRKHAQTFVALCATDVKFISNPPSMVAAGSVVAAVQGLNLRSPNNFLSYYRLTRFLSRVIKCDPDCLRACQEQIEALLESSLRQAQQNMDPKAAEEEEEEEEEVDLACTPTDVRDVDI
Sequence of cdc2/cyclin B complex (P06493 whole entry, one chain of several): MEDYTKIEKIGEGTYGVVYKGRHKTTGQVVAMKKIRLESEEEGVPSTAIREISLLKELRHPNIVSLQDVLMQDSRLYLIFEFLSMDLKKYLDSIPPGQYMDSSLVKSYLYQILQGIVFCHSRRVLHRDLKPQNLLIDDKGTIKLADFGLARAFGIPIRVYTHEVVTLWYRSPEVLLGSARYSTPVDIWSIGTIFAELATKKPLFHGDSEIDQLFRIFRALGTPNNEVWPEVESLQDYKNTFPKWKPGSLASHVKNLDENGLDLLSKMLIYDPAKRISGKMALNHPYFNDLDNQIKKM

Ki (CDK4/cyclin D1 complex [1]): 75 nM
IC50 of in vitro kinase assay (32P incorporation into Gst-Rb) (cdc2/cyclin B complex): > 500 nM
IC50 of in vitro kinase assay (32P incorporation into Gst-Rb) (CDK2/cyclin E complex): > 500 nM
IC50 of in vitro kinase assay (32P incorporation into Gst-Rb) (CDK4/cyclin D1 complex [2]): 250 nM
IC50 of in vitro kinase assay (32P incorporation into Gst-Rb) (CDK2/cyclin A complex): > 500 nM
B1: p16 (other, human, UniProt P42771 1-156, looked up)
chain: MEPAAGSSMEPSADWLATAAARGRVEEVRALLEAGALPNAPNSYGRRPIQVMMMGSARVAELLLLHGAEPNCADPATLTRPVHDAAREGFLDTLVVLHRAGARLDVRDAWGRLPVDLAEELGHRDVARYLRAAAGGTRGSNHARIDAAEGPSDIPD
notes: also called p16^Ink4/MTS1; p16^INK4A
